Measured values published in the nanobody polyreactivity screen of Harvey et al. (2022).

Assay: yeast display, Sf9 membrane polyspecificity reagent, FACS + sequencing; frameworks hold sequencing errors
Outline: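 A nanobody's polyreactivity label depends on the gate it was sorted from. Yeast display cells were stained with 10% biotinylated, detergent-solubilized Sf9 membrane reagent for 1 hour at 4 °C, enriched on streptavidin microbeads and sorted by FACS. The low and high (top ~1%) gates were set on anti-HA fluorescence for expression and streptavidin fluorescence for reagent binding.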

| Sequence | polyreactivity (PSR sort gate) |
| --- | --- |
| QVQLVESGGGLVQAGGSLRLSCAASGITFRLYAMGWYRQAPGKERELVAAITGSGGRTYYADSVKGRFTISRDNAKNTVYLQMNSLNPEDTAVFYCNVYPPYAMDYWGQGTQVTVSS | high polyreactivity |
| QVQLVESGGGLVQAGGSLRLSCAASGRTFIWYAMGWYRQAPGKEREFVAAIRSSGGRTYYADSVKGRFTISRDNAKNTVYLQMNSLKPEDTAVYYCAKEAYYGWYWYGYWGQGTQVTVSS | high polyreactivity |
| QVQLVESGGGLVQAGGSLRLSCAASGSIFINNAMGWYRQATGKERELVSAIRRGDSTTYADSVKGRFTISRDNAKNTVYLQMNSLKPEDTAVYYCATSPWWYGYAAYGMDYWGQGTQVTVSS | low polyreactivity |
| QVQLVESGGGLVQAGGSLRLICAASGRIFGRNAMGWYRQAPGKERELVAVITWRGGSTYYADSVKGRFTISRDNAKNTVYLQMNSLKPEDTAVYYCAADTSRYYLPRYRTDYWGQGTQVTVSS | high polyreactivity |
| QVQLVESGGGLVQAGGSLRLSCAASGGTFLGNAMGWYRPAPGKERELVADITSGGSTNYADSVKGRFTISRDNAKNTVYLQMNSLKPEDTAVYYCNAEYSTSTVWEYDYWGQGTQVTVSS | low polyreactivity |
| QVQLVESGGGLVQAGGSLRLSCAASGSTFVYYDMGWYRQAPGKERELVADISDSGGSTNYADSVKGRFTISRDNAKNTVYLQMNSLKPEDTAVYYCAADSADPTEYDYWGQGTQVTVSS | low polyreactivity |
| QGQLVESGGGVVQAGGSLRLSCAASGRIFYRNAMGWYRQAPGKVRELVAAINWSGGSTYYADSVKGRFTISRDNAKNTVYLQMNSLKPEDTAVYYCAARFVRYPSKYDYWGQGTQVTVSS | high polyreactivity |
| QVQLVESGGGLVQAGGSLRLSCAAYGGIFKQYALGCYRQAPGKERELVAANTWSGGSTYYADSVKGRFTISRDNAKNTVYLQMNSLKPEDTAVYYCAKDYVLFQYVDFQDDDYWGQGTQVTVSS | low polyreactivity |
| QVQLVESGVGLVQAGGSLRLSCAASGSIFGFYAMGWYRQAPGKERELVAAITSGDSTHYADSVKGRFTISRDNAKNTVYLQMNSLKPEDTAVYYCAASAPYRYYRSAYYYWGQGTQVTVSS | low polyreactivity |
| QVQLVESGGGLVQAGGSLRLSCAASGSIFGYYVMGWYRPAPGKERELVAGISYSGGRTYYADSVKGRFTISRDNAKNTVYLQMNSLQPEDTAVYYCAAEGTTSWWVKYGYWGQGTQVTVSS | low polyreactivity |
| QVQLVESGGGLVQAGGSLRLICAASGFTFDANAMGWYRQAPGKERELVAAITRVGSTFYADSVKGRFTISRDNAKNTVYLQMNSLKPEDTAVYYCNAARDHVSGYVYWGQGTQVTVSS | low polyreactivity |
| QVQLVESGGGLVQAGGSLRLSCAASGFTFRLYTMGWYRQAPGKERELVAGISTSGGSTYYADSVKGRFTISRDNAKNTVYLQMNSLKPEDTAVYYCAAQAFTSYDYWGQGTQVTVSS | high polyreactivity |
| QVQHVESGGGLVQAGGSLRLSCAASGSIFGRYAMGWYRQAPGKERELVAAIRTDGSTYYADSVKGRFTISRDNAKNTVYLQMNSLKPEDTAVYYCAAVSKFQFHYIQYADRQYGYWGQGTQVTVSS | low polyreactivity |
| QVQLVESGGGLVQAGGSLRLSCAASARILAYYAMGWYRQAPGKERELVAAITSGGRTYYADSVKGRFTISRDNAKNTVYLQMNSLKPEDTAVYYGAVRWYPRYGSRYDYWGQGTQVTVSS | high polyreactivity |
| QVQLVESGGGLVQAGGSLRLSCAASGFIFTTNAMGWYRQAPGKERELVAAITRSGGSTYADSVKGRFTLSRDNAKNTVYLQMNSLKPEETAVYYCNADGYFWGQGTQVTVSS | low polyreactivity |
| QVQLVESGGGIVQAGGSLRLSCAASGSIFYHNAMGWYRQAPGKERELVAAITGSGGSTYYADSVKGRFTISRDNAKNTVYLQMNSLKPEDTAVYYCAADGYTKWWISWGYDYWGQGTQVTVSS | low polyreactivity |
| QVQLVESGGGLVQAGGSLRLSCAASGRIFGYNAMGWYRQAPGKERELVAAIRRSGNTYADSVKGRFTISRDNAKNTVYLQMNSLKPEDTAVYYCAHRVSKRMYYWGQGTQVTVSS | high polyreactivity |
| QVQLLESGGGLVQAGGSLRLSCAASGSSFSHYTMGWYRQAPGKERELVAAINYGGASTYYADSVKGRFTISRDNAKNTVYLQMNSLKPEYTAVYYCAAANRPSEQDNYWGQGTQVTVSS | low polyreactivity |
| QVQLVESGGGLVQAGGSLRLSCAASGRTFRTYAMGWYRQAPGKERELVAVITVNSASTYYADSVKGRFTISRDYAKNTVYLQMKSLKPEDTAVYYCADYFIYGYWGQGTQVTVSS | low polyreactivity |
| QVQLVESGGGLVQAGGSLRLSCAASGSTFRHNAMGRYRPAPGKERELVAAITRSGGRTFYADSVKGRFTISRDNAKNTVYLQMNSLKPEDTAVYYCAAERITPYDSSSAYDYWGQGTQVTVSS | low polyreactivity |
| QVQLLESGGGLVQAGGILRLRCAASGIIVRGYVMGWYRQAPGKESELVAAISTSGGRTSYADSVKGRFTISRDNAKNTVYLQMNSLKPEDTAVYYCAARPLYSYSQSGYGYWGQGTQVTVSS | high polyreactivity |
| QVQLVESGGGLVQAGGSLRLSCAASGRTFKFYAMGWYRQAPGKERELVATITSGGSTYYADSVKGRFTISRDNAKNTVYLQMNSLKPEDTAVYYCNKRYRKPGSGWYDSWGQGTQVTVSS | high polyreactivity |

| Sequence | polyreactivity (PSR sort gate) |
| --- | --- |
| QVQLVESGGGLVQAGGSLRLSCAASGRIFPYYAMGWYRQAPGKERELVAAISQSGGSTNYADSVKGRFTISRDNAKNTVYLQLNSLKPEDTAVYYCNVDVSRSWAQPYTYDYWGQGTQVTVSS | low polyreactivity |
| QVQLVESGGVLVQAGGILRLSCAASGNIVVYYAMGWSRQAPGKERELVASITTSGGSTYYADSVKGRFTISRDNATNTVYFQMNSLKPEDTAVYYCAALYYYWLYYWGQGTQVTVSW | low polyreactivity |
| QVQLVESGGGLVQAGGSLRLSCAASGLTFIPNAMGWYRQAPGKERELVAAISGTGGSTYYADSVKGRFTISRDNAKNTVYLQMNSLKPEDTAVFYCAARAYLGYYSWGQGTQVTVSS | high polyreactivity |
| QVQLVESGGGLVQAGGSLRLSCAASGRIFDYNTLGWYRQAPGKERELVAAISASGTRTYYADSVKGRFTISRDNAKNTVYLQMNSLKPEDTAVYYCAAVYSYIASYLRYDYWGQGTQVTVSS | high polyreactivity |
| QVQLVESGGGLVQAGGSLRLSCAASGSTLYVYAMGWYRQAPGKEREFVADISWSGGSTYYADSVKGRFTISRDNAKNTVYLQMNILKPEDTAVYYCNADFTDSYWSRYDYWGQGTQVTVSS | low polyreactivity |
| QVQLVESGGCLVQAGGSLRLSCAASGRMFWSNARGWYRQARGYERELVAAMRNTGSTYYADSVKGRFTISRDNAKNTVYLQMNSLKPEETAVYYCATKPYPYYLYYYWGQGTQVTVSS | high polyreactivity |
| QVQLVESGGGVVQAGGSLRLSCAASGSIFNGYAMGWYRQAPGNEWELVAAISGNGGRTYYADSVKGRFTFSRDYAKNTVYLQMNSLKPEETADYYCNKVSGYYVDYWGQGSQVTVSS | high polyreactivity |
| QVQLVESGGGLVQEGGSLRLSCAASGSTFSWYTMGWYRQAPGKERELVAAITRGGTTYYADSVKGRFTISRDNAKNTVYLQMISLKPEDTAVYYCAARYSRDVRMGYWGQGTQVTVSS | high polyreactivity |
| QVQLVESGAGLVQAGGSLRLSCAASGFTFAKYAMGWYRQAPGKERELVATIRRSDDNTYYADSVKGRFTISRDNAKNTVYLQMNSLKPEDTAVYYCATGYYALYSRKPYKYNYWGQGTQVTVSS | high polyreactivity |
| QVQLVESGGGLVQAGGSLRLSCAASGRTFRYNVMGWYRQAPGKERELVAAIRKRSGSTYYADSVKGRFTISRDNAKNTVYLQMISLKPEDTAVYYCNTEYHYGTASASDYWGQGTQVTVSS | high polyreactivity |
| QVQLVESGGGLVQAGGSLRLSCAASGYILPKNTMGWYRQAPGKERESVAVITYSGGSTYYADSVKGRFTISRDNAKNTVYLQMNSLKPEDTAVYYCAADKWYYVRYPTDAYSKFDYWGQGTQVTVSS | low polyreactivity |
| QVQLVESGGGLVQAGGSLRLSCAASGRTFWNYAMGWYRQAPGKERELVAVIRFSDGSTYYSDSVKGRFTISRDKAKNTVYLQMNSLKPEDTAVYYCGAKGPRRWGSGFDYWGQGTQVNVSS | low polyreactivity |
| QVQLVESGGGLVQAGGSLRLSCAASGISFEYYAMGWYRQAPGKERELVAAITRGGSTYYADSVKGRFTISRDNAKNTVYLQMNSLKPEDTAVYYCAADRYYYEYDYWGQGTQVTVSS | low polyreactivity |
| QVQLVESGGGLVQAGGSLRLSCAASGFSLRNNAMGWYRPAPGKERELVAGITSGGRTNYADSVKGRFTISRDNAKNTVYLQMNSLKPEHTAVYYCAKRVWPRDQYGKRNPRMDYWGQGTLVTVSS | high polyreactivity |
| QFQLVESGGGLVQAGGSLRLSCAASGSTFGVYAMGWYRQAPGKERELVATINSGGSTNYADSVKGRFTISRDNAKNTVYLQMNSLKPEDTAVYYCAAGPFWQDFYVYEYDYWGQGTQVTVSS | low polyreactivity |
| QVQLVESGGGLVQAGGSLRLSCAASGRNYGNAMGWYRQAPGKERELVAAISAGGGRTYYADSVKGRFTISRDNAKNTVYLQMNSLKPEDTAVYYCAADTTLQAFIRYRPIGSYDSWGQGTQVTVSS | low polyreactivity |
| QVQHVESGGGLVQAGGSLRLSCAASGLIFARNAMVWYRQAPGKERELVAAISSSGNTYADSVKGRFTISRDNAKNTVYLQMNSLKPEDTAVFYCAADYVRWGQRKRSRYYYWGHGTQVTVSS | high polyreactivity |
| QVQLVESGGGLVQAGGSLRLSCAASGRTFGYNVMGWYRQAPGKERELVARITSGGNTKYADSVKGRFTISRDNAKNTVYLQMNSLKPEDTAVYYCAKRPLGVRGIYFQYDYWGQGTQVTVSS | high polyreactivity |
| QVQLVESGGGLVQAGGSLRLSCAASGRIFRQNAMGWYRQAPGKERELVAAISRSGGSTYYADSVKGRFTISRDNAKNTVYLQMNSLKPEDTAVYYCAADVHTPALYTYAAGDYWGQGTQVTVSS | low polyreactivity |
| QVQLVESGGGLVQAGGSLRLSCAASGIIFQFYAMGWYRQAPGKERELVAAISRSGGITHYADSVKGRFTISRDNAKNTVYLQMNSLKPEDTAVYYCAAVRQAYPRLDYWGQGTQVTVSS | high polyreactivity |
| QVQLVESGGGLVQAGGSLRLSCAASGLTFTLNAMGRYRQATGKERELVATISQDGGGTTYADSVKGRFTISRDNAKNTVYLQMNSLKPEDTAVYYCATTLPPSVWGEWSGTRYPYDYWGQGTQVTVSS | low polyreactivity |
